In patent US6403769:
pKd: −log10 of the molar value.

Legend:
[1] = target: keratinocyte growth factor (KGF) (human) (UniProt P21781); experiment: 50% displacement of 125I-KGF by unlabeled KGF, fusion protein captured on Gamma Bind G (Scatchard analysis)
[2] = target: KGFR-HFc fusion protein (construct not specified); experiment: binding of 125I-aFGF to KGFR-HFc in solution, capture on Gamma Bind G
[3] = target: keratinocyte growth factor receptor (KGFR) (UniProt P21803); experiment: cell-based or functional assay
[4] = target: keratinocyte growth factor receptor (KGFR) (UniProt P21803); experiment: competition with 125I-KGF on 32D cells expressing KGFR
[5] = target: keratinocyte growth factor receptor (KGFR) (UniProt P21803); experiment: flow cytometry on KGFR-containing B5-589 cells and NIH 3T3 transfectants, FITC rabbit anti-mouse IgG
[6] = target: bovine brain aFGF (bovine) (UniProt P03968); experiment: comparison value for native KGFR; method not described
[7] = target: keratinocyte growth factor (KGF) (human) (UniProt P21781); experiment: comparison value for native KGFR on epithelial cells; method not described

KGF-HFc fusion protein, sequence (P21781 other isoform, or with tags, fused parts or gaps limits assumed): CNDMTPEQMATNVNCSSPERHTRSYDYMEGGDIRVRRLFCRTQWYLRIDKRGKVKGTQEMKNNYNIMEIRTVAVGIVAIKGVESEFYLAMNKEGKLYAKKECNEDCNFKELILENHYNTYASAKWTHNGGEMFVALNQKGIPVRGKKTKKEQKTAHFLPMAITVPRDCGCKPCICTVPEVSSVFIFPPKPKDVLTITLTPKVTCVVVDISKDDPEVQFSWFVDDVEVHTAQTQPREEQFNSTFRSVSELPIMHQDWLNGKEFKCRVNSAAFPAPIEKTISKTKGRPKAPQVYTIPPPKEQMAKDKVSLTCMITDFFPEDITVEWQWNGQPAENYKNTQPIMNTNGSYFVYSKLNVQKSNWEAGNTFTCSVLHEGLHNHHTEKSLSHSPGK
bovine brain aFGF, sequence (P03968 16-155 limits assumed): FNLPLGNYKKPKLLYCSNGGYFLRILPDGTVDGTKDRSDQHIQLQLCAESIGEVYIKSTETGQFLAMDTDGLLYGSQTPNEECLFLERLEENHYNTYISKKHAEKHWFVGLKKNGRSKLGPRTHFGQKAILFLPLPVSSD
keratinocyte growth factor (KGF) (human), sequence (P21781 32-194 limits assumed): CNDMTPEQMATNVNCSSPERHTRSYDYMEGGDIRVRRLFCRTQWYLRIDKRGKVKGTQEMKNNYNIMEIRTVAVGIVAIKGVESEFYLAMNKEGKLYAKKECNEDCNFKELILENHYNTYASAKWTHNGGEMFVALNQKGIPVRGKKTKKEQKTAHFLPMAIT
bovine brain aFGF (bovine), sequence (P03968 16-155 limits assumed): as the sequence (P03968 16-155 limits assumed) above

“D3-HFc fusion protein (from UniProt P21803 157-232; P01868 98-324)” gave a pKd [1] of 10.70.
In the case of “bovine brain aFGF (from UniProt P03968 16-155) (ligand)”, the ligand concentration at which saturable binding was achieved [2] was 40 to 50 ng/mL.
With “KGF-HFc fusion protein (from UniProt P21781 32-194; P01868 98-324)” the half-maximal stimulation of 3H-thymidine uptake in BALB/MK cells [3] was 45 pM, the stimulation of 3H-thymidine uptake in BALB/MK cells [3] was > 20 fold and the pKd [4] was 8.85. For the same substance, the fold increase in fluorescent intensity compared to untransfected NIH 3T3 cells [5] was 10 to 100 fold.
With “keratinocyte growth factor receptor (KGFR) (from UniProt P21803 22-821)” the pKd [6] was 9.22 and the pKd [7] was 9.74.
